The target in the assay is CD147 (human) (UniProt P35613). Kind of assay: SPR, BIAcore 3000, CD147 amine-coupled on CM5 chip, Spike-RBD as analyte. In general terms: In SPR one partner is held on a chip, and binding of the other changes the refractive index at the surface.

A word on the Kd: it is the equilibrium constant for the complex coming apart. A higher Kd goes with lower affinity. A word on the koff: it is a measure of how fast the partners let go of each other. A higher koff goes with fast dissociation. In general, kon refers to the second-order rate constant of association. High values mean fast association, low ones slow association.

Take “new coronavirus S protein (COVID-19 Spike-RBD) (from UniProt P0DTC2 319-541) (ligand; other documents disagree on this pair)”: the Kd worked out at 0.185 µM, the off-rate constant (koff) amounted to 0.00206 s⁻¹ and the kon stood at 11100 M⁻¹ s⁻¹.

The record behind these values is patent WO2021180110A1.
